The record followed here is patent publication US8039438B2, “Synthetic peptides that cause F-actin bundling and block actin depolymerization” (The Regents of the University of California, priority 2003, dated 2011).

The target in experiment [1] is actin/pyrene-actin (Oryctolagus cuniculus, UniProt P68135). The experiment in a line: Actin/pyrene-actin polymerization fluorescence (nucleating or capping activity). Type of experiment: biochemical. The settings on record: time-dependent fluorescence increase; data not shown. An excerpt:
Upon binding to ActA, the Arp2/3 complex has enhanced nucleating activity for actin polymerization (Skoble J, Portnoy D A, Welch M D, Three regions within ActA promote Arp2/3 complex-mediated actin nucleation and Listeria monocytogenes motility; J Cell Biol. […] Aug. 7; 150(3):527-38). We tested a possible involvement of the homologous sequence on nucleating or capping activity by following the time-dependent fluorescence increase upon actin/pyrene-actin polymerization in the presence of the synthetic peptide SS12.

Experiment [2] deals with actin comet tails in Xenopus egg extracts. As to the kind of experiment: Actin comet-tail formation in cytoplasmic extracts. Type of experiment: biochemical, Xenopus laevis. The method, then: In FIGS. 4A and 4B, in vitro polymerized actin forms comet tail from rhodamine-labeled actin added to Xenopus laevis egg cytoplasmic extract. This was set up according to the protocol in Taunton et al., J Cell Biol. 2000 Feb. 7; 148(3):519-30.
Crude Xenopus egg extract was prepared as described except that cytochalasin D was omitted (Murray and Kirschner, Nature. 1989 May 25; 339(6222):275-80). Cytosol and a heavy membrane fraction were prepared by centrifugation of the crude extract (2 h, 300.000 g max; BECKMAN SW-50 rotor). The viscous glycogen pellet beneath the membrane layer was discarded. Cytosol was further clarified by spinning for 15 min at 541,000 g max (BECKMAN TLA 100.3 rotor). Crude membranes (diluted with one volume of 2 M sucrose) and cytosol were snap frozen in separate aliquots for storage at −80° C. unless otherwise indicated. Clarified cytosol contained a small population of vesicles, but motility assays were far more robust (more comet tails over a longer time period) when cytosol was supplemented with the heavy membrane fraction.
For the standard assay, crude membranes in 1 M sucrose (20-μl aliquot, derived from ˜80 μl crude extract) were washed and resuspended in 14 μl buffer A (50 mM NaCl, 5 mM MgCl2, and 50 mM tris [pH 7.5]). To the membrane suspension were added 35 μl cytosol (derived from ˜80 μl crude extract), 0.3 μl rhodamine-labeled actin (prepared according to Kellogg et al., Development. 1988 August; 103(4):675-86), 3 μl PMA (20 μM stock in 10% DMSO), and 20 μl buffer A at 4° C. 20-μl samples were then warmed to room temperature. After 30-40 min, 2-μl aliquots were viewed with a Nikon E800 microscope to yield the photomicrographs of FIG. 4. Images were acquired with a Princeton Instruments cooled CCD camera (standard rhodamine filter set, Princeton Instruments, Trenton, N.J.) and analyzed with WINVIEW (Visitron System, Puchheim, Germany) or METAMORPH software (Princeton Instruments, Trenton, N.J.). Pixels having an intensity over a threshold value (set to a value greater than the background fluorescence in regions devoid of comet tails) were summed over 10 random fields to quantitate relative actin assembly.
Cytosol was supplemented with a crude membrane fraction, rhodamine-actin, 1 μM PMA and peptide SS2 or SS12 (1 μM). After incubating at room temperature for 20 min, samples were viewed by fluorescence. Actin comet tails formed in Xenopus cytoplasmic extracts where no SS2 or SS12 peptides were added as shown by the photographs A, B and E of FIG. 4.

Experiment [3] addresses T1, purified rabbit muscle actin (Oryctolagus cuniculus, UniProt P68135).
T1 construct: purified rabbit muscle actin in vitro were visualized by negative stain electron microscopy; from tissue; host or cells: rabbit muscle
The experiment in a line: Negative stain electron microscopy of actin polymerized in presence of peptide. It counts as biochemical. The note with it: co-polymerization, molar ratio peptide:actin=2, negative stain electron microscopy. An excerpt:
The actin bundles caused by co-polymerization of SS12 peptide with purified rabbit muscle actin in vitro were visualized by negative stain electron microscopy (FIG. 5). The bundles still show overall filamenteous structure about 3 times the width of actin filaments polymerized in vitro in the absence of SS12 peptide (FIG. 5A, B). The surface of the bundles is not smooth, but irregular, resembling attempts to branch or attachments of short actin bundles to the sides of the long ones (FIG. 5C). The peptide-bundled actin filaments are much shorter than the control filaments as visualized with rhodamine-phalloidin by fluorescence microscopy (data not shown).
Purified rabbit actin was polymerized in the presence or absence of the SS12 peptide and by absorption applied to a carbon coated copper grid. Negative contrastation was carried out with Pb-citrate and the dried grid was viewed in an Electron microscope at high magnifications (12,000× and 65,000×). […] Higher magnification identified a “modulated” decoration of the otherwise smooth filaments.

In experiment [4] the target is T2, rabbit muscle actin (Oryctolagus cuniculus, UniProt P68135).
T2 construct: Purified rabbit muscle actin (Cytoskeleton Inc., Denver, Mo.); purchased Cytoskeleton Inc; host or cells: rabbit muscle
The experiment in a line: In vitro bundling of actin by peptides (co-polymerization, differential centrifugation, SDS gel). It counts as biochemical. On the procedure: The peptides in Table 2 were added to polymerised actin in vitro at different molar ratios. Centrifugation was used to separate fractions containing F-actin, G-actin and bundled actin, which were then run out on […]. Purified rabbit muscle actin (Cytoskeleton Inc., Denver, Mo.) was depolymerized in Low Salt Buffer [LSB; 5 mM Tris-HCl, pH 8.0, 0.2 mM CaCl2, 0.2 mM ATP, 0.5 mM DTT, mM sucrose) for 1 h on ice and denucleated by centrifugation for 1 h at 100,000×g, 4° C. 13 μM monomeric actin was polymerized in vitro by addition of 1/50 vol. […] The samples were centrifuged for 15 min at 10,000×g at room temperature to pellet “bundled filaments”. The resulting supernatant was centrifuged for 1 h at 100,000×g at room temperature to separate F-actin filaments […]. The fractions were boiled in SDS-sample buffer and analyzed on a 10% SDS-Polyacrylamide gel stained with Coomassie.

The subject of experiment [5] is MCF7 cells. The experiment in a line: Cytokinesis in MCF7 cells imaged after addition of peptide. Type of experiment: cell-based. The note with it: MCF7 cells electroporated with GFP-actin, peptide in DMSO, imaged up to 4 hours. The method, then:
MCF7 cells were electroporated with GFP-actin and imaged (image not shown). After addition of peptide in DMSO, the MCF7 cells were continuously imaged for up to 4 hours. […] The actin filaments within the cells were observed by fluorescence and had the appearance of spikes. Thus it appears that treatment by the active peptide results in inhibition of cytokinesis and blocks cell division.

The test system of experiment [6] is dextran-labeled electroporated cells. As to the kind of experiment: Change in number of dextran-labeled cells after electroporation with peptide. It counts as cell-based.

On to “GIVRKWISRFEVWPYL (SS12 active synthetic peptide)”, for which, in experiment [1], the “nucleating or capping activity” value is recorded as “did not show any nucleating or capping activity”. Also, the “effect on actin comet tails” value in experiment [2] (FIGS. 4C, 4D, 4F, concentration not given) was “complete disruption of the comet tails”. Further, the “actin comet tail formation” value in experiment [2] (peptide 1 μM, 1 μM PMA, 20 min at room temperature) is listed as “little or no actin comet tail formation”. In addition, the “width of bundles relative to actin filaments polymerized in the absence of peptide” value in experiment [3] is given as “about 3 times the width”. For the same sequence, the “bundling of actin during in vitro polymerization” value in experiment [4] is recorded as “most active”. Moreover, the “bundled actin upon inducing polymerization” value in experiment [4] (1:1 molar ratio peptide:actin, polymerization induced (PI +), FIGS. 6C, 6D) is reported as “the bulk of the actin is bundled”. Further, in experiment [4] (1:1 molar ratio peptide:actin, polymerization not induced, FIGS. 6C, 6D), the “bundled actin with peptide alone” value is on record as “half of the actin bundled”. In addition, the “In vitro actin bundling activity” value in experiment [4] (Tables 2 and 3, peptide co-polymerized with actin in vitro) is “active”. The “free F-actin band” value is on record as “very small bands” in experiment [4] (molar ratio 10:1, FIG. 6E) and “clearly no band of free F-actin” in experiment [4] (molar ratio 100:1, FIG. 6E lane 6). For the same sequence, the form of actin entry in experiment [4] (molar ratio peptide to actin 50, FIG. 6F) is listed as “all of the actin is in the bundled form”. Further, the “activity designation of the peptide in the sequence list (active / less active / inactive)” value in experiment [4] (summary sequence table) is “SS12 active”. In addition, the “cytokinesis and nuclear division” value in experiment [5] is reported as “cytokinesis but not nuclear division was blocked”. In addition, the “number of cells after 24 hours” value in experiment [6] (compared to cells treated with the inactive peptide) is “decrease in the number of cells”. For the same sequence, the “time over which cell division was inhibited” value in experiment [6] (observation period 36 hours, cells with 24 hr cell cycle) amounted to 36 h.
